Experimental data published in publication PMC3553496 (Science signaling, 2011).

T1: Protein FAM134C peptide (18-mer) (human)
T1 peptide: ALVEVLGPYEPLLSRVQA

T2: Cathepsin B peptide (18-mer) (human)
T2 peptide: CGTFLGGPKPPQRVMFTE

T3: Eukaryotic translation initiation factor 2-a kinase 3 peptide (18-mer) (human)
T3 peptide: VRISEKFPSSPKALESVT

T4: Vigilin peptide (18-mer) (human)
T4 peptide: PTYKDAFPPLPEKAACLE

T5: CDK5 and ABL1 enzyme substrate 1 peptide (18-mer) (human)
T5 peptide: GCIALAAPGTPAAGLAAG

T6: Calpain-2 catalytic subunit peptide (18-mer) (human)
T6 peptide: AGTLFQDPSFPAIPSALG

T7: SRA stem-loop–interacting RNA binding protein, mitochondrial peptide (18-mer) (human)
T7 peptide: VQVHTRRPKLPQTSDDEK

T8: Chromodomain helicase-DNA binding protein 3 peptide (18-mer) (human)
T8 peptide: YLNLSQEPAHPAMALHAR

T9: Serotransferrin peptide (18-mer) (human)
T9 peptide: NLREGTCPEAPTDECKPV

T10: Paxillin-associated protein with ARF GAP activity 3 peptide (18-mer) (human)
T10 peptide: GISQIRPPPLPPQPPSRL

T11: Protein Shroom 3 peptide (18-mer) (human)
T11 peptide: ASDSGRGPQRPDARLLRS

T12: Large proline-rich protein BAT3 peptide (18-mer) (human)
T12 peptide: QTLGQQVPGFPTAPTRVV

T13: Dynein heavy chain 6 peptide (18-mer) (human)
T13 peptide: EKERPPKPEAPWLPTATW

B1: GST-tagged RICS SH3 domain (domain or fragment, human, UniProt A7KAX9 262-320, looked up)
chain: GAAHVIKRYTARAPDELTLEVGDIVSVIDMPPKVLSTWWRGKHGFQVGLFPGHCVELIN
B2: GST-tagged ARHGAP10 SH3 domain (domain or fragment, human, UniProt A1A4S6 731-786, looked up)
chain: RKARAVYPCEAEHSSELSFEIGAIFEDVQTSREPGWLEGTLNGKRGLIPQNYVKLL

Assays:
Assay in all cases: peptide or protein array
[1] = biological target: T1, Protein FAM134C peptide (18-mer)
[2] = biological target: T2, Cathepsin B peptide (18-mer)
[3] = biological target: T3, Eukaryotic translation initiation …
Vigilin peptide (18-mer) = biological target: T4, Vigilin peptide (18-mer)
[4] = biological target: T5, CDK5 and ABL1 enzyme substrate 1 …
[5] = biological target: T6, Calpain-2 catalytic subunit peptide …
[6] = biological target: T7, SRA stem-loop–interacting RNA binding …
[7] = biological target: T8, Chromodomain helicase-DNA binding …
[8] = biological target: T9, Serotransferrin peptide (18-mer)
[9] = biological target: T10, Paxillin-associated protein with ARF …
[10] = biological target: T11, Protein Shroom 3 peptide (18-mer)
[11] = biological target: T12, Large proline-rich protein BAT3 peptide …
[12] = biological target: T13, Dynein heavy chain 6 peptide (18-mer)

| relative binding strength (% of the strongest interaction of this SH3 domain) [1] [%] | relative binding strength (% of the strongest interaction of this SH3 domain) [2] [%] | relative binding strength (% of the strongest interaction of this SH3 domain) [3] [%] | relative binding strength (% of the strongest interaction of this SH3 domain) (Vigilin peptide (18-mer)) [%] | relative binding strength (% of the strongest interaction of this SH3 domain) [4] [%] | relative binding strength (% of the strongest interaction of this SH3 domain) [5] [%] | relative binding strength (% of the strongest interaction of this SH3 domain) [6] [%] | relative binding strength (% of the strongest interaction of this SH3 domain) [7] [%] | relative binding strength (% of the strongest interaction of this SH3 domain) [8] [%] | relative binding strength (% of the strongest interaction of this SH3 domain) [9] [%] | relative binding strength (% of the strongest interaction of this SH3 domain) [10] [%] | relative binding strength (% of the strongest interaction of this SH3 domain) [11] [%] | relative binding strength (% of the strongest interaction of this SH3 domain) [12] [%] | Binder |
| --- | --- | --- | --- | --- | --- | --- | --- | --- | --- | --- | --- | --- | --- |
| 85 | 100 | 15 | 5 | 7 | 49 | 7 | 88 | 49 | – | – | – | – | B1 |
| – | – | – | – | – | – | – | – | – | 100 | 37 | 58 | 95 | B2 |
